From paper PMC7926377

Tests used:
[1] = molecular target: Met-Gly-SplF-His6 (S. aureus strain 8325-4) (UniProt Q2FXC8)
[2] = molecular target: T1, His6-SplF (S. aureus strain 8325-4) (UniProt Q2FXC8)
T1 sequence: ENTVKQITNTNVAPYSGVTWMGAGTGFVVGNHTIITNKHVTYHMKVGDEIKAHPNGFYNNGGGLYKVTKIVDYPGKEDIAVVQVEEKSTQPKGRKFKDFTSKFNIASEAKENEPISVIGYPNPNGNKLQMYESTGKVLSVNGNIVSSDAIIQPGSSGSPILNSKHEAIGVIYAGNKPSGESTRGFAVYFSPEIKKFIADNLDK

[3] = molecular target: T2, SplF-His6 (S. aureus strain 8325-4) (UniProt Q2FXC8)
T2 sequence: T1 sequence

What does the source list for ABZ-Tyr-Met-Leu-Ser-ANB-NH2 (peptide)?
KM of ABZ-Tyr-Met-Leu-Ser-ANB-NH2 hydrolysis (Michaelis-Menten fit, PBS, 37 °C) [1]: 18.2 µM; KM of ABZ-Tyr-Met-Leu-Ser-ANB-NH2 hydrolysis (Michaelis-Menten fit, PBS, 37 °C) [2]: 21.4 µM; KM of ABZ-Tyr-Met-Leu-Ser-ANB-NH2 hydrolysis (Michaelis-Menten fit, PBS, 37 °C) [3]: 30.8 µM
